In patent US20060286611A1, “Antibodies against biotinylated histones and related proteins and assays related thereto” (Board of Regents of University of Nebraska, priority 2005, published 2006):
Entries after “also recorded” stand apart in the source; their conditions may differ. Non-standard residues stand in square brackets, D forms with d. No end group written: not given here. Me2 = dimethyl-lysine (dimethyl-epsilon-NH2-L-lysine); pS = N[C@@H](COP(=O)(O)O)C(=O)O; Orn = NCCC[C@H](N)C(=O)O

Legend:
biotinidase [1] = target: T1, biotinidase (Homo sapiens, UniProt P43251); experiment: Enzymatic biotinylation of synthetic histone H2A and H2A.X peptides by biotinidase; assay type: biochemical; settings: human plasma as source of biotinidase, 75 μmol/L biocytin, pH 8.0, 37° C., up to 45 minutes
T1 construct: 60 μL of human plasma; from tissue; host or cells: human plasma
T1 sequence (P43251 22-523): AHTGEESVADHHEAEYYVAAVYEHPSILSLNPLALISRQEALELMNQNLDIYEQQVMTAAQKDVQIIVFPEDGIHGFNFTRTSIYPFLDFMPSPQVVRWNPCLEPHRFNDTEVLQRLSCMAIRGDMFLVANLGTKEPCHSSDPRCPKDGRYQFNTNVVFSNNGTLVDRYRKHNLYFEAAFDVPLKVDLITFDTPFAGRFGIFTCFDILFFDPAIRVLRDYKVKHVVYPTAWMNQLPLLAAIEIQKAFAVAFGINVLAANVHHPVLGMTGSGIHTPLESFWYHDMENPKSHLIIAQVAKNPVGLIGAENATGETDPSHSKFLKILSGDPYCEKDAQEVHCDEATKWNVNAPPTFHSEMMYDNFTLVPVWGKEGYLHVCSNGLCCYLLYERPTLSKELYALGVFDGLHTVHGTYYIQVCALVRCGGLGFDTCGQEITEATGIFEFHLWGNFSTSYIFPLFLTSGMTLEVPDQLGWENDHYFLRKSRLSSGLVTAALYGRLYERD
Source text: In Examples described above, the inventors developed a procedure to identify amino acid residues in histones that are targets for biotinylation. […] Amino acid substitutions (e.g., lysine-to-alanine substitutions) in synthetic peptides are used to corroborate identification of biotinylation sites. In addition, amino acid modifications (e.g., acetylation of lysines) in peptides can be used to investigate the cross-talk between biotinylation of histones and other known modifications of histones.
Peptides from both the N- and C-terminal regions of histone H2A and H2A.X were included in the analysis of biotinylation sites. […] Reactions were quenched by adding an equal volume of Tricine gel loading buffer (Invitrogen, Carlsbad, Calif.).

biotinidase [2] = target: T1, biotinidase; experiment: Enzymatic biotinylation of synthetic histone H3 peptides by biotinidase; assay type: biochemical; settings: biotinidase and biocytin, 45 min

Row | Molecule | enzymatic biotinylation by biotinidase, peptide-bound biotin probed with streptavidin peroxidase (biotinidase [1]) | enzymatic biotinylation by biotinidase, peptide-bound biotin probed with streptavidin-peroxidase (biotinidase [2])
1 | K5,9A1-9: histone H2A N1-9, both lysine residues substituted with alanines (SGRGAQGGA) | no biotinylation was detectable | –
2 | TAOKSTGG (TA[Orn]KSTGG) [Peptide R8O6-13] | – | increased considerably
3 | AKAKTRSSR [Peptide N12-20, histone H2A amino acids 12-20] | not a good target; also recorded: poor target for biotinylation | –
4 | TARASTGG [Peptide K9A6-13, histone H3 6-13, K9 substituted with alanine] | – | no biotinylation was observed
5 | K13,15A,T16S12-20: T16S12-20 with both lysine residues substituted with alanine (AAAASRSSR) | no biotinylation was detectable | –
6 | GKKATQASQEY [Peptide C132-142, C-terminus of histone H2A.X, amino acids 132-142] | not biotinylated | –
7 | NCCC[C@H](N)C(=O)O [ornithine] | – | not biotinylated
8 | Q6T,K9A1-9: Q6T1-9 with K9 substituted with alanine (SGRGKTGGA) | substantially decreased biotinylation | –
9 | K125,127,129A122-129: C122-129 with all lysine residues substituted with alanine (SHHAAAGA) | no biotinylation was detectable | –
10 | AKAKSRSSR [Peptide T16S12-20, N-terminus of histone H2A.X, amino acids 12-20] | good targets for biotinylation; also recorded: biotinylated only moderately | –
11 | SEQ ID NO:76: histone H2A N7-14 with acetylation of K13 (GGKARAK(Ac)A) | decreased the biotinylation of K9 | –
12 | SEQ ID NO:74: histone H2A peptide containing acetylated K9 and free K5 (SGRGKTGGK(Ac)) | not a target for biotinylation | –
13 | ATVGPKAPSG [Peptide C122-131, C-terminus of histone H2A.X, amino acids 122-131] | not biotinylated | –
14 | TAAKSTGG [Peptide R8A6-13, histone H3 6-13, R8 substituted with alanine] | – | increased considerably
15 | Q6T,K5A1-9: Q6T1-9 with K5 substituted with alanine (SGRGATGGK) | decreased biotinylation only moderately | –
16 | TARKS(p)TGG (TARK[pS]TGG) [S10S(p)6-13, histone H3 6-13, phosphorylation of S10] | – | poor target for biotinylation
17 | K13,15A12-20: histone H2A N12-20, both lysine residues substituted with alanine (AAAATRSSR) | no biotinylation was detectable | –
18 | K125,129A122-129: C122-129 with K125 and K129 substituted with alanine (SHHAAKGA) | considerable decrease of biotinylation | –
19 | K5A1-9: histone H2A N1-9, K5 substituted with alanine (SGRGAQGGK) [Peptide K5A1-9] | did not decrease biotinylation | –
20 | N16-23: histone H3 amino acids 16-23, including K18 and K23 (PRKQLATK; UniProt P68431 17-24, looked up, fragment) [Peptide N16-23] | – | moderate target for biotinylation
21 | K15A,T16S12-20: T16S12-20 with K15 substituted with alanine (AKAASRSSR) | decreased moderately | –

Row | Molecule | enzymatic biotinylation by biotinidase, peptide-bound biotin probed with streptavidin peroxidase (biotinidase [1]) | enzymatic biotinylation by biotinidase, peptide-bound biotin probed with streptavidin-peroxidase (biotinidase [2])
22 | K125,127A122-129: C122-129 with K125 and K127 substituted with alanine (SHHAAAGK) | decreased only moderately | –
23 | K18A16-23: histone H3 amino acids 16 to 23, K18 substituted with alanine (PRAQLATK) [Peptide K18A16-23] | – | weak
24 | SGRGKTGGK [Peptide Q6T1-9, N-terminus of histone H2A.X, amino acids 1-9] | good targets for biotinylation | –
25 | K18,23A18-25: histone H3 amino acids 18-25, K18 and K23 substituted with alanine (AQLATAAA) | – | No biotinylation was detected
26 | GGKARAKA [Peptide N7-14, histone H2A amino acids 7-14] | good target for biotinylation; also recorded: heavily biotinylated; also recorded: moderate target for biotinylation | –
27 | K13A,T16S12-20: T16S12-20 with K13 substituted with alanine (AAAKSRSSR) | No biotinylation was detectable | –
28 | SEQ ID NO:75: histone H2A N7-14 with dimethylation of K13 (GGKARAK(Me2)A) | decreased the biotinylation of K9 | –
29 | K9A9-16: histone H3 amino acids 9 to 16, K9 substituted with alanine (ASTGGKAP) [Peptide K9A9-16] | – | poor target for biotinylation
30 | K18,23A16-23: histone H3 amino acids 16 to 23, K18 and K23 substituted with alanine (PRAQLATA) | – | no binding of biotin was detectable
31 | SEQ ID NO:73: histone H2A N1-9 with acetylation of K5 (SGRGK(Ac)TGGK) | moderate decrease | –
32 | K9,14A9-16: histone H3 amino acids 9 to 16, K9 and K14 substituted with alanine (ASTGGAAP) | – | no binding of biotin was detectable
33 | K14A9-16: histone H3 amino acids 9 to 16, K14 substituted with alanine (KSTGGAAP) [Peptide K14A9-16] | – | heavily biotinylated
34 | N18-25: histone H3 amino acids 18-25, including K18 and K23 (RKQLATKA; listed as Homo sapiens) [Peptide N18-25] | – | better substrate for biotinylation
35 | TARKSTGG [Peptide N6-13, native unmodified peptide, position 6-13 in histone H3] | – | moderate target for biotinylation
36 | K18A18-25: histone H3 amino acids 18-25, K18 substituted with alanine (AQLATKAA) [Peptide K18A18-25] | – | barely detectable
37 | K15A12-20: histone H2A N12-20, K15 substituted with alanine (AKAATRSSR) [Peptide K15A12-20] | good target for biotinylation | –
38 | K4A1-9: histone H3 amino acids 1 to 9, K4 substituted with alanine (ARTAQTARK) [Peptide K4A1-9] | – | barely detectable
39 | K23A18-25: histone H3 amino acids 18-25, K23 substituted with alanine (KQLATAAA) [Peptide K23A18-25] | – | heavily biotinylated
40 | K13A12-20: histone H2A N12-20, K13 substituted with alanine (AAAKTRSSR) [Peptide K13A12-20] | did not render K15 a good target | –
41 | SHHKAKGK [Peptide C122-129, histone H2A amino acids 122-129] | good target for biotinylation; also recorded: good substrate for biotinylation | –
42 | K127,129A122-129: C122-129 with K127 and K129 substituted with alanine (SHHAAAGA) | considerable decrease of biotinylation | –
